“Also recorded” adds a separate entry of the source.

Common to all, as to assay type: cell-based
Data set [1] deals with T1, APE1 (Homo sapiens, UniProt P27695).
T1 construct: endogenous in cells; host or cells: HEK293T
The data set is described as follows: APE1 inhibitor effect on base diversification and indels, AID or pmCDA1 fused to Cas9 nickase (D10A), HTS in HEK293T cells. The following applies: 100 μM and 200 μM, 3 d. The protocol:
APE1 was inhibited by using CRT0044876 (Scheme 1), which is a potent and well-known APE1 inhibitor.
To ascertain whether this compound improves base diversification profile, HEK293T cells were treated with AID or pmCDA1 fused to Cas9 nickase (D10A) in the presence of CRT0044876. After 3 d, the cells were harvested and analyzed through high-throughput sequencing (HTS).

The subject of data set [2] is Sites 1-4 (SEQ ID NO:131-134). The data set is described as follows: Fusion architecture for adenine diversifiers (ABE8.20m N- or C-terminal glycosylase fusions), HTS in HEK293T cells. The following applies: four guide RNAs, 3 days, FIG. 9. The procedure: Several glycosylase domains were fused to either the N-terminus or C-terminus of ABE8.20m (SEQ ID NO:57). For the N-terminal fusions to ABE8.20m, the deaminase was between the glycosylase domain and CRISPR-Cas effector protein, and, for the C-terminal fusions to ABE8.20m, the CRISPR-Cas effector protein was between the glycosylase domain and deaminase. Three putative inosine glycosylases were tested, which are: hMPG, a methylpurine glycosylase (MPG) from Homo sapiens (SEQ ID NO:84, UniProtKB—P29372); mMPG from Mus musculus (SEQ ID NO:83, UniProtKB—Q04841); and SpThp1, a known uracil DNA glycosylase that also has activity towards inosine, from Schizosaccharomyces pombe (SEQ ID NO:79, UniProtKB—O59825) (Alseth et al. Nucleic Acids Research 2005, 33(3) 1123-1131).
The following plasmids were transfected into HEK293T cells: a plasmid encoding ABE8.20m or a fusion protein including ABE8.20m fused to one of the above inosine glycosylases, and a plasmid encoding a guide RNA. […] Four guide RNAs were tested corresponding to the following four target nucleic acids (i.e., sites): Site 1: […] (SEQ ID NO:131), Site 2: […] (SEQ ID NO:132), Site 3: […] (SEQ ID NO:133), and Site 4: […] (SEQ ID NO:134). After three days, the editing efficiency was measured by high throughput sequencing of targeted loci.

In data set [3] the test system is several genomic sites in HEK293T cells (target nucleic acid of SEQ ID NO:132). As to the kind of experiment: Deaminase screen for base diversification, MCP-deaminase recruited to Cas9 nickase (D10A), HTS in HEK293T cells. The following applies: MCP fusion recruited to Cas9 nickase (D10A) by 2xMS2 gRNA, no UGI, FIG. 4. The protocol: They were fused to MCP (MS2 […]) at the N-terminus, and recruited towards Cas9 nickase (D10A) by using gRNA fused to 2×MS2 hairpins. They were assayed against several genomic sites in HEK293T cells. Base conversion profiles were analyzed by high-throughput sequencing and the results are shown in FIG. 4 for the target nucleic acid of SEQ ID NO:132.
AP endonuclease I (APE1) is an enzyme within the base excision repair pathway that cleaves the phosphodiester bond at the abasic site, generating a nick in the base-edited strand. […] In constructs lacking UGI, base diversification is usually accompanied with indels. For example, in all target sites described above, about 5-20% of products contain indels, which lowers the efficiency of base diversification (FIG. 5).

The test system of data set [4] is endogenous loci. The data set is described as follows: Transversion mutations from adenine: ABE7.10 with inosine glycosylases (fusion or in trans), HTS in HEK293T cells. Particulars: fusion constructs and co-transfected constructs with ABE7.10, FIGS. 7A-7B and 8A-8B. The source says:
The experiment was designed to generate transversion mutations from adenines by promoting inosines to undergo the same cellular DNA repair pathways that generate transversion mutations during translesion-bypass polymerization in cytosine base editing. While not wishing to be bound to any particular theory, it was hypothesized that the key step was to facilitate the glycosylation of inosines generated during adenine base editing. It was hypothesized that once glycosylated, the resulting abasic site can be a substrate for translesion-bypass repair and that this would lead to transversion mutations. Exogenous inosine glycosylases were provided along with ABE to promote inosine glycosylation.
Several inosine glycosylases were screened in HEK293T cells and it was determined whether they were capable of acting on inosines generated by ABE. If inosine is converted into an abasic site, and subsequently repaired through translesion-bypass polymerization, transversion mutations can be generated from adenines.
Five different glycosylases from various species were selected for testing. The following genes were codon-optimized and cloned into a mammalian expression vector, either as unfused gene, or as a C-terminal fusion to ABE7.10 (species source in parenthesis); hMPG (Homo sapiens) having an amino acid sequence of SEQ ID NO:84, mMPG (Mus musculus) having an amino acid sequence of SEQ ID NO:83, rMPG (Rattus norvegicus) having an amino acid sequence of SEQ ID NO:80, SpThp1 (Schizosaccharomyces pombe) having an amino acid sequence of SEQ ID NO:79, MaHDG (Methanosarcina acetivorans) having an amino acid sequence of SEQ ID NO:81, and MbHDG (Methanosarcina barkeri) having an amino acid sequence of SEQ ID NO:82. […] The HEK293T cells were transfected with a plasmid encoding gRNA targeting endogenous loci and either the fusion plasmid or a mixture of plasmids expressing ABE7.10 and the above inosine glycosylases. After 3 days, high-throughput sequencing was used to determine the editing result of targeted adenines. Mock transfection (using pUC19) was used to set baseline editing. All conditions that used ABE7.10 generated 10-20% guanine transition, as expected.

Data set [5] concerns Sites 1-5 (SEQ ID NO:131, 134, 133, 140, 132). As to the kind of experiment: Inosine glycosylase homolog testing, C-terminal fusions to ABE8e. The following applies: C-terminal fusion to ABE8e, Sites 1-5, FIG. 16.

T1 sequence (P27695 whole entry): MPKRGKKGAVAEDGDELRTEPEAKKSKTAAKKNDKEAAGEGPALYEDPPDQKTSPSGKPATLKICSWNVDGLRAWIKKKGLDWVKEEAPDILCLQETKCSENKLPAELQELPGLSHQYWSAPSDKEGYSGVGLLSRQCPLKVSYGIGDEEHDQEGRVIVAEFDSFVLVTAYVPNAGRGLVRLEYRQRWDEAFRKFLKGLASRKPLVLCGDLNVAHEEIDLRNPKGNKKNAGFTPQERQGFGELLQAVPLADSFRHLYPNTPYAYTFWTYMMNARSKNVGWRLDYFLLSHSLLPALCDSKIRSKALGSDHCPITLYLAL

Consider `O=C(O)c1cc2cccc([N+](=O)[O-])c2[nH]1` [CRT0044876], for which the base diversification rate result in data set [1] (FIGS. 6A and 6C) is reported as “some decrease in base diversification rate was also observed”. The “amount of indel generated” value in data set [1] (multiple target sites, FIGS. 6B and 6D) is “significant decrease in the amount of indel generated across multiple target sites; also recorded: reduces the rate of indel mutations”.
In the case of “ABE8.20m: adenine base editor, SEQ ID NO:57, without glycosylase domain”, in data set [2], the “A to C or T change of target adenine” value was “negligible A to C or T change”.
Consider “APOBEC3A: cytosine deaminase fused to MCP, recruited towards Cas9 nickase (D10A) by gRNA with 2×MS2 hairpins”, for which the “conversion of C into G, T, and A within the base editing window” value in data set [3] was “robustly converts C into G, T, and A nucleotides within the base editing window”.
As for “hMPG: methylpurine glycosylase from Homo sapiens, SEQ ID NO:84, UniProtKB P29372”, the “generation of C and T bases from adenine over background” value (“generation … over background” for short) in data set [4] was “significant amount of C and T bases over background”.

B1: mMPG: methylpurine glycosylase from Mus musculus, SEQ ID NO:83, UniProtKB Q04841 (protein, listed as Mus musculus)
chain: MPARGGSARPGRGALKPVSVTLLPDTEQPPFLGRARRPGNARAGSLVTGYHEVGQMPAPLSRKIGQKKQRLADSEQQQTPKERLLSTPGLRRSIYFSSPEDHSGRLGPEFFDQPAVTLARAFLGQVLVRRLADGTELRGRIVETEAYLGPEDEAAHSRGGRQTPRNRGMFMKPGTLYVYLIYGMYFCLNVSSQGAGACVLLRALEPLEGLETMRQLRNSLRKSTVGRSLKDRELCSGPSKLCQALAIDKSFDQRDLAQDDAVWLEHGPLESSSPAVVVAAARIGIGHAGEWTQKPLRFYVQGSPWVSVVDRVAEQMDQPQQTACSEGLLIVQK
Take B1: the “generation … over background” value in data set [4] was “significant amount of C and T bases over background”.

B2: ClMPG: truncated MPG of Canis lupus, SEQ ID NO:87, fused to C-terminus of ABE8e (protein, listed as Canis lupus)
chain: KSHSAQLGSDFFDQPAVALARAFLGQVLVRRLDDGTELRGRIVETEAYLGPEDEAAHSRGGRQTPRNRGMFMKPGTLYVYIIYGMYFCLNVSSQGDGACVLLRALEPLGGLETMRQLRSTLRKGTTGRALKDRELCSGPSKLCQALAIDKSFDQRDLAKDRAVWLERSPPGPSEPAVVAAARVGIGHAGEWAQKPLRFYLRGSPWVSVVDRAAEQNAQA
In the case of B2, in data set [5], the “adenine to C or T editing activity of adenine diversifiers” value (“adenine to C or T editing activity” for short) is reported as “displayed the highest activity”.

B3: CjMPG: truncated MPG of Callithrix jacchus, SEQ ID NO:88, fused to C-terminus of ABE8e (protein, listed as Callithrix jacchus)
chain: KGYLTRLGSEFFDQPAVTLAQAFLGQVLVRRLPNGTELRGRIVETEAYLGPEDEAAHSRGGRQTPRNRGMFMKPGTLYVYIIYGMYFCMNISSQGDGACVLLRALEPLEGLETMRQLRSTLRKGTASRVLKDRELCSGPSKLCQALAIDKSFDQRDLAQDEAIWLEHGPLEPSGPTVVAAARVGIGYAGEWSRKPLRFYVRGSPWVSVVDRVAEQDAQA
For the molecule B3, the “adenine to C or T editing activity” value in data set [5] is listed as “displayed the highest activity”.

B4: SpThp1: uracil DNA glycosylase with activity towards inosine from Schizosaccharomyces pombe, SEQ ID NO:79 (protein)
chain: MNDIETRDTGTKNDNSSEFNLSVKSHKRKRSFDDENLELEESREETSGGILKKAKTQSFSESLERFRFAHAGSNNEYRKTDVVKNSDTDNGLLKSAVETITLENGLRNRRVNVTKKSTLKASVKKSTLKKKNEVDPALLQGVPDYICENPYAIIVGLNPGITSSLKGHAFASPSNRFWKMLNKSKLLEGNAEFTYLNDKDLPAHGLGITNLCARPSSSGADLRKEEMQDGARILYEKVKRYRPQVGLFISGKGIWEEMYKMLTGKKLPKTFVFGWQPEKFGDANVFVGISSSGRAAGYSDEKKQNLWNLFAEEVNRHREIVKHAV
modifications: Schizosaccharomyces pombe
B4: the “generation … over background” value in data set [4] is “significant amount of C and T bases over background”.

B5: CgMPG: truncated MPG of Cricetulus griseus, SEQ ID NO:86, fused to C-terminus of ABE8e (protein, listed as Cricetulus griseus)
chain: EDHPARLGPEFFDQPAVTLARAFLGQVLVRRLADGTELRGRIVETEAYLGPEDEAAHSRGGRQTPRNRGMFMKPGTLYVYIIYGMYFCLNVSSQGAGACVLLRALEPLEGLDTMRQLRSTLRKSTVSRTLKDRELCSGPSKLCQALAIDKSFDQRDLTQDEAVWLEHGPLATGSPAVVAAARIGIGHAGEWTQKPLRFYVQGSPWVSVVDRVAEQMCQPQQTA
B5: the “adenine to C or T editing activity” value in data set [5] is listed as “displayed the highest activity”.

B6: APOBEC1: cytosine deaminase fused to MCP, recruited towards Cas9 nickase (D10A) by gRNA with 2×MS2 hairpins (protein, listed as Rattus norvegicus)
chain: SSETGPVAVDPTLRRRIEPHEFEVFFDPRELRKETCLLYEINWGGRHSIWRHTSQNTNKHVEVNFIEKFTTERYFCPNTRCSITWFLSWSPCGECSRAITEFLSRYPHVTLFIYIARLYHHADPRNRQGLRDLISSGVTIQIMTEQESGYCWRNFVNYSPSNEAHWPRYPHLWVRLYVLELYCIILGLPPCLNILRRKQPQLTFFTIALQSCHYQRLPPHILWATGLK
As for B6, the “conversion of C into G, T, and A within the base editing window” value in data set [3] was “robustly converts C into G, T, and A nucleotides within the base editing window”.

The record behind these values is patent US12043827B2, “Compositions, systems, and methods for base diversification” (Pairwise Plants Services, Inc., priority 2020, dated 2024).
